Experimental data as given in the supplement of paper PMC10567573.

B1: ZNF649 (parent)
chain: LVAHQRYHTGKTPFVCPECGQPCS
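Further: lentivirally expressed fusions sorted by FACS into six bins by GFP to DsRed ratio, PSI derived from sequencing read proportions per bin multiplied by bin number.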

Variants of: B1
Assay: protein stability index of a GFP-peptide fusion (GPS, HEK-293T) (PSI 1-6); higher = more stable
Settings: c terminus: a fixed tail appended
With LVAHQRYHTGKTPFQCPECGQPCS [V15Q] the protein stability index was 3.36. LVAHQRYHTGKTPFRCPECGQPCS [V15R] showed a protein stability index of 3.06. LVAHQRYHTGKTPFSCPECGQPCS [V15S] gave a protein stability index of 3.19. LVAHQRYHTGKTPFTCPECGQPCS [V15T] gave a protein stability index of 3.11. Work on LVAHQRYHTGKTPFWCPECGQPCS [V15W] yielded a protein stability index of 2.67. With LVAHQRYHTGKTPFYCPECGQPCS [V15Y] the protein stability index was 2.96. For LVAHQRYHTGKTPFVAPECGQPCS [C16A], the protein stability index was 2.35. LVAHQRYHTGKTPFVDPECGQPCS [C16D] showed a protein stability index of 3.8. For LVAHQRYHTGKTPFVEPECGQPCS [C16E], the protein stability index was 3.01. Variant LVAHQRYHTGKTPFVFPECGQPCS [C16F] has a protein stability index of 2.28. LVAHQRYHTGKTPFVGPECGQPCS [C16G] gave a protein stability index of 2.91. For LVAHQRYHTGKTPFVHPECGQPCS [C16H], the protein stability index was 2.64. LVAHQRYHTGKTPFVIPECGQPCS [C16I] showed a protein stability index of 2.14. In the case of LVAHQRYHTGKTPFVKPECGQPCS [C16K], the protein stability index is reported as 2.75. For LVAHQRYHTGKTPFVLPECGQPCS [C16L], the protein stability index was 2.5. In the case of LVAHQRYHTGKTPFVMPECGQPCS [C16M], the protein stability index is reported as 2.72. Variant LVAHQRYHTGKTPFVNPECGQPCS [C16N] has a protein stability index of 2.88. LVAHQRYHTGKTPFVPPECGQPCS [C16P] showed a protein stability index of 3.48. LVAHQRYHTGKTPFVQPECGQPCS [C16Q] showed a protein stability index of 3.03. Variant LVAHQRYHTGKTPFVRPECGQPCS [C16R] has a protein stability index of 2.89. For LVAHQRYHTGKTPFVSPECGQPCS [C16S], the protein stability index was 3.16. LVAHQRYHTGKTPFVTPECGQPCS [C16T] showed a protein stability index of 2.27. With LVAHQRYHTGKTPFVVPECGQPCS [C16V] the protein stability index was 2.58. With LVAHQRYHTGKTPFVWPECGQPCS [C16W] the protein stability index was 1.86. In the case of LVAHQRYHTGKTPFVYPECGQPCS [C16Y], the protein stability index is reported as 2.37. Variant LVAHQRYHTGKTPFVCAECGQPCS [P17A] has a protein stability index of 2.84. LVAHQRYHTGKTPFVCCECGQPCS [P17C] gave a protein stability index of 2.98. With LVAHQRYHTGKTPFVCDECGQPCS [P17D] the protein stability index was 3.35. Variant LVAHQRYHTGKTPFVCEECGQPCS [P17E] has a protein stability index of 3.16. Variant LVAHQRYHTGKTPFVCFECGQPCS [P17F] has a protein stability index of 2.16. With LVAHQRYHTGKTPFVCGECGQPCS [P17G] the protein stability index was 2.92. LVAHQRYHTGKTPFVCHECGQPCS [P17H] gave a protein stability index of 2.86. LVAHQRYHTGKTPFVCIECGQPCS [P17I] gave a protein stability index of 2.73. In the case of LVAHQRYHTGKTPFVCKECGQPCS [P17K], the protein stability index is reported as 3.37. With LVAHQRYHTGKTPFVCLECGQPCS [P17L] the protein stability index was 2.26. With LVAHQRYHTGKTPFVCMECGQPCS [P17M] the protein stability index was 2.77. Work on LVAHQRYHTGKTPFVCNECGQPCS [P17N] yielded a protein stability index of 3.48. For LVAHQRYHTGKTPFVCQECGQPCS [P17Q], the protein stability index was 3.51. LVAHQRYHTGKTPFVCRECGQPCS [P17R] showed a protein stability index of 2.26. LVAHQRYHTGKTPFVCSECGQPCS [P17S] showed a protein stability index of 3.37. LVAHQRYHTGKTPFVCTECGQPCS [P17T] gave a protein stability index of 3.04. Work on LVAHQRYHTGKTPFVCVECGQPCS [P17V] yielded a protein stability index of 2.59. With LVAHQRYHTGKTPFVCWECGQPCS [P17W] the protein stability index was 2.37. LVAHQRYHTGKTPFVCYECGQPCS [P17Y] gave a protein stability index of 2.48. LVAHQRYHTGKTPFVCPACGQPCS [E18A] gave a protein stability index of 2.99. Work on LVAHQRYHTGKTPFVCPCCGQPCS [E18C] yielded a protein stability index of 2.82. LVAHQRYHTGKTPFVCPDCGQPCS [E18D] gave a protein stability index of 3.18. In the case of LVAHQRYHTGKTPFVCPFCGQPCS [E18F], the protein stability index is reported as 2.56. With LVAHQRYHTGKTPFVCPGCGQPCS [E18G] the protein stability index was 1.8. For LVAHQRYHTGKTPFVCPHCGQPCS [E18H], the protein stability index was 2.38. For LVAHQRYHTGKTPFVCPICGQPCS [E18I], the protein stability index was 2.61. Work on LVAHQRYHTGKTPFVCPKCGQPCS [E18K] yielded a protein stability index of 2.54. Work on LVAHQRYHTGKTPFVCPLCGQPCS [E18L] yielded a protein stability index of 2.66. LVAHQRYHTGKTPFVCPMCGQPCS [E18M] showed a protein stability index of 2.58. With LVAHQRYHTGKTPFVCPNCGQPCS [E18N] the protein stability index was 2.34. For LVAHQRYHTGKTPFVCPPCGQPCS [E18P], the protein stability index was 1.91. LVAHQRYHTGKTPFVCPQCGQPCS [E18Q] showed a protein stability index of 3.31. LVAHQRYHTGKTPFVCPRCGQPCS [E18R] showed a protein stability index of 2.18. LVAHQRYHTGKTPFVCPSCGQPCS [E18S] gave a protein stability index of 3.11. For LVAHQRYHTGKTPFVCPTCGQPCS [E18T], the protein stability index was 2.4. LVAHQRYHTGKTPFVCPVCGQPCS [E18V] showed a protein stability index of 2.31. With LVAHQRYHTGKTPFVCPWCGQPCS [E18W] the protein stability index was 2.7. Variant LVAHQRYHTGKTPFVCPYCGQPCS [E18Y] has a protein stability index of 2.27. In the case of LVAHQRYHTGKTPFVCPEAGQPCS [C19A], the protein stability index is reported as 2.89. For LVAHQRYHTGKTPFVCPEDGQPCS [C19D], the protein stability index was 3.63. LVAHQRYHTGKTPFVCPEEGQPCS [C19E] gave a protein stability index of 3.03. With LVAHQRYHTGKTPFVCPEFGQPCS [C19F] the protein stability index was 2.06. LVAHQRYHTGKTPFVCPEGGQPCS [C19G] gave a protein stability index of 3.05. With LVAHQRYHTGKTPFVCPEHGQPCS [C19H] the protein stability index was 2.92. LVAHQRYHTGKTPFVCPEIGQPCS [C19I] showed a protein stability index of 2.58. LVAHQRYHTGKTPFVCPEKGQPCS [C19K] gave a protein stability index of 3.14. For LVAHQRYHTGKTPFVCPELGQPCS [C19L], the protein stability index was 2.39. In the case of LVAHQRYHTGKTPFVCPEMGQPCS [C19M], the protein stability index is reported as 2.58. LVAHQRYHTGKTPFVCPENGQPCS [C19N] gave a protein stability index of 2.92. Work on LVAHQRYHTGKTPFVCPEPGQPCS [C19P] yielded a protein stability index of 3.21. In the case of LVAHQRYHTGKTPFVCPEQGQPCS [C19Q], the protein stability index is reported as 2.92. In the case of LVAHQRYHTGKTPFVCPERGQPCS [C19R], the protein stability index is reported as 2.51. For LVAHQRYHTGKTPFVCPESGQPCS [C19S], the protein stability index was 3.15. LVAHQRYHTGKTPFVCPETGQPCS [C19T] showed a protein stability index of 3.26. In the case of LVAHQRYHTGKTPFVCPEVGQPCS [C19V], the protein stability index is reported as 2.42. LVAHQRYHTGKTPFVCPEWGQPCS [C19W] gave a protein stability index of 1.81. LVAHQRYHTGKTPFVCPEYGQPCS [C19Y] gave a protein stability index of 2.08. In the case of LVAHQRYHTGKTPFVCPECAQPCS [G20A], the protein stability index is reported as 3.06. LVAHQRYHTGKTPFVCPECCQPCS [G20C] gave a protein stability index of 2.74. For LVAHQRYHTGKTPFVCPECDQPCS [G20D], the protein stability index was 3.48. With LVAHQRYHTGKTPFVCPECEQPCS [G20E] the protein stability index was 3.07. For LVAHQRYHTGKTPFVCPECFQPCS [G20F], the protein stability index was 2.85. Work on LVAHQRYHTGKTPFVCPECHQPCS [G20H] yielded a protein stability index of 2.88. Variant LVAHQRYHTGKTPFVCPECIQPCS [G20I] has a protein stability index of 2.27. For LVAHQRYHTGKTPFVCPECKQPCS [G20K], the protein stability index was 2.86. LVAHQRYHTGKTPFVCPECLQPCS [G20L] showed a protein stability index of 2.59. LVAHQRYHTGKTPFVCPECMQPCS [G20M] gave a protein stability index of 3.03. In the case of LVAHQRYHTGKTPFVCPECNQPCS [G20N], the protein stability index is reported as 3.25. For LVAHQRYHTGKTPFVCPECPQPCS [G20P], the protein stability index was 3.12.
